B1: mouse anti-SARS-CoV-2 spike monoclonal antibody clone S3D8 (antibody, V domains shown)
VH: QVQLQQSGAELVKPGASVKLSCKASGYTFTSYYMYWMKQRPGQGLEWIGEINPSNGGTNFNEKFKSKATLTVDKSSSTAYMQLSSLTSEDSAVYYCTIFITRDAMDYWGQGTSVTVSS
VL: QIVLTQSPAIMSASPGEKVTLTCSASSSVSSSYLFWYQQKPGSSPKLWIYTTSNLASGVPARFSGSGSGTSYSLTISSMEAEDAASYFCHQWSSYPPTFGAGTKLELK
B2: mouse anti-SARS-CoV-2 spike monoclonal antibody clone R15 (antibody, V domains shown)
VH: QIQLVQSGPELKKPGETVKISCKASGYTFTKYGINWVKQAPGKDLKWMGWINTYTGEPAYGDDFKGRFAFSLETSTNTAYLQINNFKNEDTATYFCARNGAMDYWGQGTSVTVSS
VL: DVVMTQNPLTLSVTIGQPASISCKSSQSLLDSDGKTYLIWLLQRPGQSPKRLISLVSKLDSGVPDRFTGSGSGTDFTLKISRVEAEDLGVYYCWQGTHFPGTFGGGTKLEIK
B3: mouse anti-SARS-CoV-2 spike monoclonal antibody clone S1D7 (antibody, V domains shown)
VH: QVQLQQSGAELVKPGASVKLSCKASGYTFTSYYIYWMKQRPGQGLEWIGEINPNNGGTNFNEKFKSKATLTVDKSSSTAYMQLSSLTSEDSAVYYCTRGHSDYWGQGTTLTVSS
VL: DIVLTQSPASLAVSLGQRATISCRASESVEYYGTGLMQWYQQKPGQPPKLLIYAASNVESGVPARFSGSGSGTDFSLNIHPVEEDDIAMYFCQQTRKVPYTFGGGTKLEIK
B4: mouse anti-SARS-CoV-2 spike monoclonal antibody clone R31 (antibody, V domains shown)
VH: QVQLQQSGAELVRPGTSVKISCKASYTFTNYWLAWVKQRPGHGLEWIGDIYPGGAYTNFNEKFKGKATLTADTSSSTAYMQLSSLTSEDSAVYFCARDGHYGYAMDYWGQGTSVTVSS
VL: DIVMTQAAFSNPVTLGTSASISCRSSKSLLHSNGITYLYWYLQKPGQSPQLLIYQMSDLASGVPDRFSSSGSGTDFTLRISRVEAEDVGVYYCAQNLELPRTFGGGIKLEIK
B5: mouse anti-SARS-CoV-2 spike monoclonal antibody clone R22 (antibody, V domains shown)
VH: EVQLQQSGPELVRPGASVKISCKTSGYTFTEYIIHWVKQSHGKSLEWIGGIDPNNGDTSYNQKFKGKASLTVDKSSSTAYMELRSLTSDDSAVYYCARLDFDYWGQGTTLTVSS
VL: DIVMTQSHKFMSTSVGDRVSITCKASQDVRTAVAWYQQKPGQSPKLLIYWASTRYTGVPDRFTGSGSGTDYTLTISSVQAEDLALYYCQQHDSTPLTFGAGTKLELK
B6: mouse anti-SARS-CoV-2 spike monoclonal antibody clone R52 (antibody, V domains shown)
VH: QIQLVQSGPELKKPGETVKISCKASGYTFTNYGMNWVKQAPGNGLRWMGWINTYTREPSYAADFKGRFAFSLETSARAAYLQINNLKNEDTATYFCARNGAMDYWGQGTSVTVSS
VL: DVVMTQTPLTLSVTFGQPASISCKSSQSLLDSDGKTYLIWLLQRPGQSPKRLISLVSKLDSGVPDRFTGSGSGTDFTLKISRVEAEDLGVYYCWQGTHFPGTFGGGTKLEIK

What was measured:
Settings in all cases: both partners purified
[1] = molecular target: T1, SARS-CoV-2 spike receptor-binding domain (RBD) glycoprotein from the mammalian expression system (SARS-CoV-2 Wuhan-Hu-1, UniProt P0DTC2); experiment: co-IP
[2] = molecular target: T1, SARS-CoV-2 spike receptor-binding …; experiment: ELISA
[3] = molecular target: T1, SARS-CoV-2 spike receptor-binding …; experiment: western blotting

| Binder | binding result [1] | binding result [3] | further results |
| --- | --- | --- | --- |
| B1 | binds | – | – |
| B2 | – | – | binding result [2]: binds |
| B3 | binds | – | – |
| B4 | – | binds | – |
| B5 | – | binds | – |
| B6 | – | binds | – |
